# Results as given in publication PMC7041945, “Misfolded proteins bind and activate death receptor 5 to trigger apoptosis during unresolved endoplasmic reticulum stress” (eLife, 2020).
# B1: pRK CHOP (protein, UniProt P35638 1-169, looked up)
# DNA damage-inducible …: MAAESLPFSFGTLSSWELEAWYEDLQEVLSSDENGGTYVSPPGNEEEESKIFTTLDPASLAWLTEEEPEPAEVTSTSQSPHSPDSSQSSLAQEEEEEDQGRTRKRKQSGHSPARAGKQRMKEKEQENERKVAQLAEENERLKQEIERLTREVEATRRALIDRMVNLHQA
# modifications: expression plasmid
# B2: MPZ-GFP: myelin protein zero with a C-terminal monomeric EGFP, expressed from plasmid (protein)
# chain: IVVYTDREVHGAVGSRVTLHCSFWSSEWVSDDISFTWRYQPEGGRDAISIFHYAKGQPYIDEVGTFKERIQWVGDPRWKDGSIVIHNLDYSDNGTFTCDVKNPPDIVGKTSQVTLYVFEKVPTRYGVVLGAVIGGVLGVVLLLLLLFYVVRYCWLRRQAALQRRLSAMEKGKLHKPGKDASKRGRQTPVLYAMLDHSRSTKAVSEKKAKGLGESRKDKK
# modifications: left off: monomeric EGFP, C-terminal, kept
# notes: myelin protein zero with a C-terminal monomeric EGFP, expressed from plasmid
# What was measured:
# Type in all cases: cell-based, Homo sapiens
# [1] = system: GADD34 mRNA in HCT116 cells; test: qPCR of GADD34 transcript; conditions: norm to GAPDH
# HCT116 cells = test: Annexin V (and SytoxBlue) flow cytometry for apoptosis; conditions: for Mean ± SEM (Prism T-tests, Annexin V for MPZ-GFP): N=3, values agree with avg Annexin V+; for avg Annexin V+ / avg Annexin V-: mean of 3 replicates; for AnnexinV+ (Statistic, single cells) / AnnexinV- (Statistic, single cells) / GFP+ (Statistic, single cells) / GFP- (Statistic, single cells) / Q1: APC-A- , DAPI-A+ (Statistic, single cells) / Q2: APC-A+ , DAPI-A+ (Statistic, single cells) / Q3: APC-A+ , DAPI-A- (Statistic, single cells) / Q4: APC-A- , DAPI-A- (Statistic, single cells) / SytoxBlue+ (Statistic, single cells) / SytoxBlue- (Statistic, single cells) / dead cells (Statistic) / FITC-A+ (Statistic, dead cells) / FITC-A- (Statistic, dead cells): 2018-01-17 MPZ; for AnnexinV+ (Statistic, single cells): gate all cells/Single Cells/AnnexinV+; for AnnexinV- (Statistic, single cells): gate all cells/Single Cells/AnnexinV-; for GFP+ (Statistic, single cells): gate all cells/Single Cells/GFP+; for GFP- (Statistic, single cells): gate all cells/Single Cells/GFP-; for Q1: APC-A- , DAPI-A+ (Statistic, single cells): gate all cells/Single Cells/Q1; for Q2: APC-A+ , DAPI-A+ (Statistic, single cells): gate all cells/Single Cells/Q2; for Q3: APC-A+ , DAPI-A- (Statistic, single cells): gate all cells/Single Cells/Q3; for Q4: APC-A- , DAPI-A- (Statistic, single cells): gate all cells/Single Cells/Q4; for SytoxBlue+ (Statistic, single cells): gate all cells/Single Cells/SytoxBlue+; for SytoxBlue- (Statistic, single cells): gate all cells/Single Cells/SytoxBlue-; for dead cells (Statistic): gate dead cells of all events; for FITC-A+ (Statistic, dead cells): gate dead cells/Single Cells/FITC-A+; for FITC-A- (Statistic, dead cells): gate dead cells/Single Cells/FITC-A-
# Procedure: Cells seeded in a 6-well plate were transfected with the specified plasmid for 24 hr and harvested via trypsinization in complete media to allow a 30 min recovery at 37°C. The samples were then centrifuged at 500xg for 5 min and resuspended In 150 μl of a 1:20 dilution of Annexin V-AlexaFluor 647 conjugate (Thermo Scientific #A23204). Samples were transferred to a 96-well U-bottom plate and incubated in the dark for 15 min at RT. The distribution of apoptotic cells was determined by flow cytometry on a BD LSR II.
# DR5 = DR5 immunoprecipitation (blotted for DR5, MPZ-GFP, FADD); conditions: HCT116 transfected with MPZ-GFP
# Procedure: IP for DR5 was performed as previously described in [Lu et al. (2014)], using anti-DR5 mAb 5C7-conjugated agarose beads gifted by David Lawrence of the Ashkenazi lab at Genentech Inc.
# [2] = system: caspase 8 in HCT116 fractions; test: Caspase 8 activity of subcellular (iodixanol gradient) fractions; conditions: cells expressing MPZ-GFP; first and second ERGIC-associated fractions
# Procedure: This subcellular fractionation protocol was adapted from [Xu et al. (2015)].
# Cells transfected with MPZ-GFP were harvested from a 15 cm dish as described in the Size Exclusion Chromatography section above. The cell pellet was resuspended in 400 μl of homogenization buffer (10 mM triethanolamine-acetic acid, pH 7.4, 0.25 M sucrose, 1 mM sodium EDTA, protease inhibitor cocktail (Roche)) and lysed via mechanical shearing through a 25-gauge needle on a 1 ml syringe with 13 passes. (Note on protease inhibitor: 4x protease inhibitor was used to lyse samples used for Western blotting to minimize degradation of proteins, while 1x protease inhibitor was used in sample lysis for caspase glo 8 assay so that excess inhibitor would not interfere with cleavage of luminescent substrate.) Homogenized sample was then centrifuged at 2000xg for 15 min at 4°C to remove unlysed cells and the nuclear fraction. […]
# Fractions from samples lysed with 4x protease inhibitor were subjected to TCA precipitation to concentrate protein content for immunoblotting. Fractions from samples lysed with 1x protease inhibitor were used for the caspase glo 8 assay (10 μl of each fraction + 10 μl of the caspase glo 8 reagent (Promega #PRG8200) incubated for 45 min at RT prior to measuring luminescence).
# [3] = system: PARP / caspase 8 / caspase 3 in HCT116 cells; test: Western blot of HCT116 lysates (PARP, caspase 8 and caspase 3 cleavage, DR5 level)
# Procedure: Media and cells for each sample were collected by cell scraping into cold PBS followed by a subsequent wash with 1 ml of cold PBS. The cell pellet was then resuspended in cold lysis buffer (30 mM HEPES pH 7.2, 150 mM NaCl, 1% Triton X100, 1x Roche protease inhibitor) and lysed via needle shearing on ice. Samples were centrifuged at 1000xg for 5 min, and the supernatants were mixed with sample buffer to a final concentration of 1% SDS, 62.5 mM Tris-HCl pH 6.8, 10% glycerol, 0.1% bromophenol blue, 50 mM DTT. Samples were boiled at 95°C and loaded on SDS-PAGE gels (GenScript). Samples were subsequently transferred onto nitrocellulose membranes, blocked with Odyssey buffer (Licor) for 1 hr at RT, and probed with primary antibodies diluted 1:1000 (unless otherwise specified) in Licor Odyssey buffer supplemented with 0.1% Tween 20% at 4°C overnight.
# Bound primary antibodies were probed by HRP-conjugated secondary antibodies (Amersham, Piscataway, NJ, 1:10000) using enhanced chemiluminescence (SuperSignal; Thermo Scientific, Waltham, MA) detected by standard film or through the ChemiDoc XRS+ Imaging System (Bio-Rad).
# [4] = siRNA DR5 (siDR5), 2017-01-17 Replicate
# [5] = siRNA DR5 (siDR5), 2018-06-21 Rep 1
# [6] = siRNA DR5 (siDR5), 2018-06-21 Rep 2
# [7] = siRNA scrambled, 2017-01-17 Replicate
# [8] = siRNA scrambled, Tg sample with empty construct
# [9] = siRNA scrambled, 2018-06-21 Rep 1
# [10] = siRNA scrambled, 2018-06-21 Rep 2
molecule,measurement,setting,value
B1,"avg. fold induction, GADD34","[1]; HCT116, 62 ng",1.117
same,"avg. fold induction, GADD34","[1]; HCT116, 125 ng",1.442
same,"avg. fold induction, GADD34","[1]; HCT116, 250 ng",1.579
same,"avg. fold induction, GADD34","[1]; HCT116, 500 ng",2.1696
B2,Difference between means,HCT116 cells; MPZ-GFP siDR5 vs. MPZ-GFP,-18 ± 5.2
same,Mean ± SEM (Fig 1S2D),"HCT116 cells; MPZ-GFP, mean ± SEM, n=3","37.91 ± 5.341, n=3"
same,"Mean ± SEM (Prism T-tests, Annexin V for MPZ-GFP)","HCT116 cells; no siDR5, mean ± SEM",33 ± 4.7 N=3
same,"Mean ± SEM (Prism T-tests, Annexin V for MPZ-GFP)","HCT116 cells; siDR5, mean ± SEM",15 ± 2.3 N=3
same,Annexin V+,HCT116 cells; [4],10.4
same,Annexin V-,HCT116 cells; [4],89.6
same,Annexin V+,HCT116 cells; [5],17
same,Annexin V-,HCT116 cells; [5],83
same,Annexin V+,HCT116 cells; [6],17.8
same,Annexin V-,HCT116 cells; [6],82.2
same,avg Annexin V+,HCT116 cells; siRNA DR5 (siDR5),15.0667
same,avg Annexin V-,HCT116 cells; siRNA DR5 (siDR5),84.9333
same,"AnnexinV+ (Statistic, single cells)",HCT116 cells; siRNA DR5,10.4
same,"AnnexinV- (Statistic, single cells)",HCT116 cells; siRNA DR5,89.6
same,"GFP+ (Statistic, single cells)",HCT116 cells; siRNA DR5,40.8
same,"GFP- (Statistic, single cells)",HCT116 cells; siRNA DR5,59.2
same,"Q1: APC-A- , DAPI-A+ (Statistic, single cells)",HCT116 cells; siRNA DR5,1.26
same,"Q2: APC-A+ , DAPI-A+ (Statistic, single cells)",HCT116 cells; siRNA DR5,8.07
same,"Q3: APC-A+ , DAPI-A- (Statistic, single cells)",HCT116 cells; siRNA DR5,1.36
same,"Q4: APC-A- , DAPI-A- (Statistic, single cells)",HCT116 cells; siRNA DR5,89.3
same,"SytoxBlue+ (Statistic, single cells)",HCT116 cells; siRNA DR5,9.1
same,"SytoxBlue- (Statistic, single cells)",HCT116 cells; siRNA DR5,90.9
same,dead cells (Statistic),HCT116 cells; siRNA DR5,6.03
same,"FITC-A+ (Statistic, dead cells)",HCT116 cells; siRNA DR5,43.4
same,"FITC-A- (Statistic, dead cells)",HCT116 cells; siRNA DR5,56.6
same,"AnnexinV+ (Statistic, single cells)",HCT116 cells; siRNA TRAIL,20.8
same,"AnnexinV- (Statistic, single cells)",HCT116 cells; siRNA TRAIL,79.2
same,"GFP+ (Statistic, single cells)",HCT116 cells; siRNA TRAIL,47.9
same,"GFP- (Statistic, single cells)",HCT116 cells; siRNA TRAIL,52.1
same,"Q1: APC-A- , DAPI-A+ (Statistic, single cells)",HCT116 cells; siRNA TRAIL,2.56
same,"Q2: APC-A+ , DAPI-A+ (Statistic, single cells)",HCT116 cells; siRNA TRAIL,16.8
same,"Q3: APC-A+ , DAPI-A- (Statistic, single cells)",HCT116 cells; siRNA TRAIL,2.29
same,"Q4: APC-A- , DAPI-A- (Statistic, single cells)",HCT116 cells; siRNA TRAIL,78.3
same,"SytoxBlue+ (Statistic, single cells)",HCT116 cells; siRNA TRAIL,18.9
same,"SytoxBlue- (Statistic, single cells)",HCT116 cells; siRNA TRAIL,81.1
same,dead cells (Statistic),HCT116 cells; siRNA TRAIL,10.4
same,"FITC-A+ (Statistic, dead cells)",HCT116 cells; siRNA TRAIL,43.4
same,"FITC-A- (Statistic, dead cells)",HCT116 cells; siRNA TRAIL,56.6
same,Annexin V+,HCT116 cells; [7],41.8
same,Annexin V-,HCT116 cells; [7],58.2
same,"AnnexinV+ (Statistic, single cells)",HCT116 cells; [8],41.8
same,"AnnexinV- (Statistic, single cells)",HCT116 cells; [8],58.2
same,"GFP+ (Statistic, single cells)",HCT116 cells; [8],60.1
same,"GFP- (Statistic, single cells)",HCT116 cells; [8],39.9
same,"Q1: APC-A- , DAPI-A+ (Statistic, single cells)",HCT116 cells; [8],10.7
same,"Q2: APC-A+ , DAPI-A+ (Statistic, single cells)",HCT116 cells; [8],31.7
same,"Q3: APC-A+ , DAPI-A- (Statistic, single cells)",HCT116 cells; [8],8.04
same,"Q4: APC-A- , DAPI-A- (Statistic, single cells)",HCT116 cells; [8],49.5
same,"SytoxBlue+ (Statistic, single cells)",HCT116 cells; [8],40
same,"SytoxBlue- (Statistic, single cells)",HCT116 cells; [8],60
same,dead cells (Statistic),HCT116 cells; [8],22
same,"FITC-A+ (Statistic, dead cells)",HCT116 cells; [8],37.6
same,"FITC-A- (Statistic, dead cells)",HCT116 cells; [8],62.4
same,Annexin V+,HCT116 cells; [9],25.8
same,Annexin V-,HCT116 cells; [9],74.2
same,Annexin V+,HCT116 cells; [10],32
same,Annexin V-,HCT116 cells; [10],68
same,avg Annexin V+,HCT116 cells; siRNA scrambled,33.2
same,avg Annexin V-,HCT116 cells; siRNA scrambled,66.8
same,DR5 pull-down,DR5,enriched for FADD and MPZ-GFP
same,caspase 8 activity of ERGIC-associated fractions,[2],harbored the majority of the caspase 8 activity in the cell lysate
same,DR5 int (bg subtracted),"[3]; DR5 input levels, Rep 2",739.08
same,normalized DR5 to GAPDH,"[3]; DR5 input levels, Rep 2",0.2156
same,DR5 int (bg subtracted),"[3]; DR5 input levels, Rep 3",357.944
same,normalized DR5 to GAPDH,"[3]; DR5 input levels, Rep 3",0.2423
same,"DR5 levels normalized to GAPDH, average","[3]; DR5 input levels, average of rep 2 and rep 3, Stdev in row below",0.229
same,"caspase 8 and caspase 3 cleavage, high expression","[3]; HCT116, 24 hr",cleavage of caspase 8and its downstream target caspase 3
same,"caspase 8 and 3 cleavage/activity, low expression level","[3]; low levels of MPZ-GFP expression, proper plasma membrane localization",did not induce caspase 8 or 3 activity
